The results in this text go back to US11214614B2, “LTBP complex-specific inhibitors of TGFβ and uses thereof” (Scholar Rock, Inc., priority 2019, dated 2022).

In this assay the target is huLTBP1 proTGFβ1 (Homo sapiens, UniProt P01137+Q14766). Kind of assay: SPR (Biacore 8K) monovalent binding kinetics of Fabs, biotinylated antigen captured. Further details: biotin (complex biotinylated). To be noted: for ka / kd: Fab, huLTBP1 proTGFβ1, SR-AB42-HuFab average of five, SR-AB63-HuFab average of four replicate experiments. As for the experimental part:
A Biacore 8K system was employed to determine the monovalent binding affinity and the kinetic parameters for antigen binding of test antibodies. Association and dissociation kinetics of Fab fragments SR-AB42-HuFab, SR-AB63-HuFab and SR-AB43-HuFab to antigen complexes were measured, and resulting ka, kd and KD are provided below. Briefly, the binding kinetics were evaluated by surface plasmon resonance using Biacore 8K (GE Healthcare). Biotinylated capture antigens were immobilized to the chip (10 nM, ˜200 RU loading). A Biotin CAPture sensor chip was used to capture the biotinylated antigens. Fabs at 10, 5, 2.5, 1.25, and 0.6 nM concentrations were injected over the captured antigens. 0 nM was used as a reference. Affinities of LTBP antibodies to GARP and LRRC33 were confirmed using higher concentration of Fabs (100, 50, 25, 12.5, 6.25 nM). 0 nM was used as a reference. Multi-cycle kinetics was employed where each analyte concentration was injected in a separate cycle and the sensor chip surface was regenerated after each cycle. All the assays were carried out in freshly prepared 1×HBS-EP+buffer (10 mM HEPES, 150 mM NaCl, 3 mM EDTA, 0.05% Tween20, pH 7.4). Data were fit globally to a 1:1 binding model to obtain the kinetic parameters. The sensorgram for 0 nM analyte concentration was used as reference.
• 96 well plates—Greinerbio-one REF 650101 • Microplate Foils—GE Healthcare—CAT #28-9758-16 • Biotin CAPture Kit GE Healthcare product number 28920233 • Biacore running buffer—supplied as a 20× solution, diluted in Milli-Q water, TEKnova CAT #H8022 Method:
These experiments were performed using the Biacore 8K using the method “multi-cycle kinetics/affinity using Biotin CAPture kit.”
Data collection rate was set to 10 Hz and the Biotin CAPture step was performed for 300 seconds with a flow rate of 2 μL/minute. The Biotin CAPture reagent was used after a 1:5 dilution in 1× Biacore running buffer. Biotinylated ligands (the various complexes of TGFβ1) were utilized at a concentration of 10 nM and were immobilized to the sensor chip for 180 seconds with a flow rate of 10 μL/minute. The analytes, which are each of the Fabs, were tested at 10, 5, 2.5, 1.25, and 0.625 nM with a 0 nM control included. Analyte contact time was 120 seconds and the dissociation time was 900 seconds. The regeneration cycle utilized was 120 seconds with a flow rate of 10 μL/minute.
The evaluation method used was “multi-cycle affinity using capture” and a 1:1 binding model was used. […] Global fits were utilized for every KD determination.
(Surface plasmon resonance follows binding to a sensor surface in real time, without labels.)

As a reminder, the Kd is a measure of binding affinity in units of concentration. A lower Kd goes with higher affinity.

Numbering of substitutions follows the chain as printed.

Chain of huLTBP1 proTGFβ1 (P01137 30-390): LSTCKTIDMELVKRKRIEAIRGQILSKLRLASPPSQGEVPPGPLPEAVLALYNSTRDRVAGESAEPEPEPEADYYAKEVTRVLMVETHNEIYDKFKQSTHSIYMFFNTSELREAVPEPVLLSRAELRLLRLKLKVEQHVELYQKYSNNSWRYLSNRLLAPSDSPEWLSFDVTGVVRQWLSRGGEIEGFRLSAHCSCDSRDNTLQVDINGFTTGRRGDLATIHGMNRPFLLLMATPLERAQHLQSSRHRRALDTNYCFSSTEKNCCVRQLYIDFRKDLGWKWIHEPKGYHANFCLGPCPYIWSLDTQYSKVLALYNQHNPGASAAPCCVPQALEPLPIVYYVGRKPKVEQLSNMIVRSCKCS
Chain of huLTBP1 proTGFβ1 (Q14766 347-1721 limits assumed): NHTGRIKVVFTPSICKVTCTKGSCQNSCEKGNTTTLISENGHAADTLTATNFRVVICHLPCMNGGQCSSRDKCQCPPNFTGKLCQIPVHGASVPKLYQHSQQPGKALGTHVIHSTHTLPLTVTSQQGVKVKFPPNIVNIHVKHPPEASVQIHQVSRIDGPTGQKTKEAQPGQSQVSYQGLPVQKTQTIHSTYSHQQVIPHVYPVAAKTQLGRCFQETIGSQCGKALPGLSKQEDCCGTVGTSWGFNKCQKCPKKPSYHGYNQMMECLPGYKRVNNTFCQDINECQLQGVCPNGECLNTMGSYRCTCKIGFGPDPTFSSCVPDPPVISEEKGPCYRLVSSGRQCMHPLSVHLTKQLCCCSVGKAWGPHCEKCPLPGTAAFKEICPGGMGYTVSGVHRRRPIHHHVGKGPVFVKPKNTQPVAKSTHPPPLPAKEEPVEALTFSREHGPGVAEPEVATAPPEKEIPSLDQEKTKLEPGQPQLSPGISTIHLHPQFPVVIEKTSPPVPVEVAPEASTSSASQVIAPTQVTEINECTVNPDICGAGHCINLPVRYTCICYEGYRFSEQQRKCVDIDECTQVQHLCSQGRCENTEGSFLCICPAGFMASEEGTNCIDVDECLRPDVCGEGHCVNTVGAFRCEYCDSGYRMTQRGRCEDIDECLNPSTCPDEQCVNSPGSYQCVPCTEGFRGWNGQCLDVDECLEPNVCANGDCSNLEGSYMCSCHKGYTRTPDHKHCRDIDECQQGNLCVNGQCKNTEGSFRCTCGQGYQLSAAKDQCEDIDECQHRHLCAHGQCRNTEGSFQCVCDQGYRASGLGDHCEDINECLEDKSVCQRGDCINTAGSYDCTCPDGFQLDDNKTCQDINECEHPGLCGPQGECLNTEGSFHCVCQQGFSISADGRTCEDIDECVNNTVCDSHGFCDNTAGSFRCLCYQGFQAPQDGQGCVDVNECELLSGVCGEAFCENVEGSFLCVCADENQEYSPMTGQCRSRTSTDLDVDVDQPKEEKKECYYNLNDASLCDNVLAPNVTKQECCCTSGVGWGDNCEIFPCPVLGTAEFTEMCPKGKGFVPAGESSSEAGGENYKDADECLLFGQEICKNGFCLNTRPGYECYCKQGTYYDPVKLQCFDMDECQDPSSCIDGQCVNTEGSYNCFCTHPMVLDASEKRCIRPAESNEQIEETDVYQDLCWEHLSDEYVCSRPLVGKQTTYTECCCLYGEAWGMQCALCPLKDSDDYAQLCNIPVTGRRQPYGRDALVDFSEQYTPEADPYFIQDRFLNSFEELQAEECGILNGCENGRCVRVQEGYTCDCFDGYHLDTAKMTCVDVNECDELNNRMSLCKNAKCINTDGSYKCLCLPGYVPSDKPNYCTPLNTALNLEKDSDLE

B1: SR-AB48-HuFab (antibody, V domains shown)
VH: QVQLVESGGGVVQPGRSLRLSCAASGFTFRSYVMHWVRQAPGKGLEWVAVISHEGSGKYYADSVKGRFTISRDNSKNTLYLQMNSLRAEDTAVYYCARPRIAARRGGFGSWGQGTLVTVSS
VL: NFMLTQPHSVSESPGKTVTISCTRSSGNIDYNYVQWYQQRPGSSPTTVIYEDNVRPSGVPDRFSGSIDSSSNSASLTISGLKTEDEADYYCQSYDYDTQGVVFGGGTKLTVL
For B1, the ka was found to be 1.76e+06 M⁻¹ s⁻¹ and the kd came out at 0.000104 s⁻¹.

B2: SR-AB50-HuFab (antibody, V domains shown)
VH: B1 VH with S110T
VL: B1 VL with Y96S, T98N, G100R
B2 came in with a ka of 3.31e+06 M⁻¹ s⁻¹ and a kd of 0.000182 s⁻¹.

B3: SR-AB47-HuFab (antibody, V domains shown)
VH: B1 VH
VL: B1 VL with T98N, G100A
The molecule B3 displayed a ka of 1.84e+06 M⁻¹ s⁻¹ and a kd of 0.000136 s⁻¹.

B4: SR-AB46-HuFab (antibody, V domains shown)
VH: B1 VH
VL: B1 VL with Y96S, T98N, G100R
Regarding B4, the ka was determined as 2.47e+06 M⁻¹ s⁻¹ and the kd was 0.00011 s⁻¹.

B5: SR-AB53-HuFab (antibody, V domains shown)
VH: B1 VH with S110T
VL: B1 VL with S93G, Y96W
B5 came in with a ka of 1.82e+06 M⁻¹ s⁻¹ and a kd of 0.000128 s⁻¹.

B6: SR-AB60-HuFab (antibody, V domains shown)
VH: B1 VH with R98L, S110T
VL: B1 VL
Take B6: the ka is 2.35e+06 M⁻¹ s⁻¹ and the kd turned out to be 0.00012 s⁻¹.

B7: SR-AB54-HuFab (antibody, V domains shown)
VH: B1 VH with R98L
VL: B1 VL with Y96S, T98N, G100R
Molecule B7 showed a ka of 1.8e+06 M⁻¹ s⁻¹ and a kd of 8.83e-05 s⁻¹.

B8: LTBP-SR-AB42 HuFab (antibody, V domains shown)
VH: B1 VH with G57L, S110Y
VL: B1 VL with Y31N, V54Q
Take B8: the equilibrium dissociation constant (Kd) (Table 27, Hu LTBP1-ProTGFβ1) came to 0.38 nM.

B9: SR-AB59-HuFab (antibody, V domains shown)
VH: B1 VH with R98L, S110T
VL: B1 VL with T98N, G100A
B9 returned a ka of 2.55e+06 M⁻¹ s⁻¹ and a kd of 0.00013 s⁻¹.

B10: SR-AB51-HuFab (antibody, V domains shown)
VH: B1 VH with S110T
VL: B1 VL with T98N, G100A
As to B10, the ka is 2.55e+06 M⁻¹ s⁻¹ and the kd came out at 0.00015 s⁻¹.

B11: SR-AB52-HuFab (antibody, V domains shown)
VH: B1 VH with S110T
VL: B1 VL
In the case of B11, the ka is 2.5e+06 M⁻¹ s⁻¹ and the kd was determined as 9.91e-05 s⁻¹.

B12: SR-AB61-HuFab (antibody, V domains shown)
VH: B1 VH with R98L, S110T
VL: B1 VL with S93G, Y96W
In turn, B12 returned a ka of 1.17e+06 M⁻¹ s⁻¹ and a kd of 0.000155 s⁻¹.

B13: SR-AB56-HuFab (antibody, V domains shown)
VH: B1 VH with R98L
VL: B1 VL
As to B13, the ka stood at 2.58e+06 M⁻¹ s⁻¹ and the kd is 0.000126 s⁻¹.

B14: SR-AB57-HuFab (antibody, V domains shown)
VH: B1 VH with R98L
VL: B1 VL with S93G, Y96W
With B14, the ka worked out at 1.35e+06 M⁻¹ s⁻¹ and the kd amounted to 0.000181 s⁻¹.

B15: SR-AB55-HuFab (antibody, V domains shown)
VH: B1 VH with R98L
VL: B1 VL with T98N, G100A
As for B15, the ka worked out at 862000 M⁻¹ s⁻¹ and the kd was determined as 0.000113 s⁻¹.

B16: SR-AB49-HuFab (antibody, V domains shown)
VH: B1 VH
VL: B1 VL with S93G, Y96W
In turn, B16 returned a ka of 809000 M⁻¹ s⁻¹ and a kd of 0.000138 s⁻¹.

B17: SR-AB58-HuFab (antibody, V domains shown)
VH: B1 VH with R98L, S110T
VL: B1 VL with Y96S, T98N, G100R
As to B17, the ka worked out at 3.11e+06 M⁻¹ s⁻¹ and the kd stood at 0.000162 s⁻¹.
